# Read-outs that look alike come from different tables or passages of the source.
# Key:
# Assay in all cases: spectrophotometric quinone formation, Michaelis-Menten fit
# Assay type in all cases: biochemical, Taraxacum officinale
# PPO-1 = test system: T1, PPO-1; settings: 50 mM acetate-phosphate, optimal pH (5.5), 25 °C, optimal SDS concentration as activator, O2 co-substrate
# T1 construct: mature protein without transit peptide, N-terminal Strep2 tag with enterokinase site spacer; E. coli Rosetta2 (DE3)
# From the text: spectrophotometric quinone formation, Michaelis-Menten fit on PPO-1
# [1] = substrate: NCCc1ccc(O)c(O)c1; settings: 50 mM acetate-phosphate, optimal pH (5.0), 25 °C, optimal SDS concentration as activator, O2 co-substrate
# From the text: spectrophotometric quinone formation, Michaelis-Menten fit on PPO-7
# [2] = substrate: NCCc1ccc(O)c(O)c1; settings: 50 mM acetate-phosphate, optimal pH (6.0), 25 °C, optimal SDS concentration as activator, O2 co-substrate
# From the text: spectrophotometric quinone formation, Michaelis-Menten fit on PPO-2
# [3] = substrate: NCCc1ccc(O)c(O)c1; settings: 50 mM acetate-phosphate, optimal pH (5.0), 25 °C, optimal SDS concentration as activator, O2 co-substrate; remark: listed apart in the source
# From the text: spectrophotometric quinone formation, Michaelis-Menten fit on PPO-6
molecule,measurement,setting,value
"N[C@@H](Cc1ccc(O)c(O)c1)C(=O)O [dihydroxyphenylalanine, (S)-2-amino-3-(3,4-dihydroxyphenyl)propanoic acid]",Km,PPO-1; read-out: substrate / L-Dopa,8.07 ± 2.14 mM
"NCCc1ccc(O)c(O)c1 [dopamine, 4-(2-aminoethyl)benzene-1,2-diol]",Km,PPO-1; read-out: substrate / DA,0.78 ± 0.14 mM
"Oc1ccccc1O [catechol, benzene-1,2-diol]",Km,PPO-1; read-out: substrate / CAT,1.19 ± 0.51 mM
"O=C(O)Cc1ccc(O)c(O)c1 [dihydroxyphenylacetic acid, 2-(3,4-dihydroxyphenyl)acetic acid]",Km,PPO-1; read-out: substrate / Dopac,4.95 ± 1.67 mM
"Cc1ccc(O)c(O)c1 [4-methylcatechol, 4-methylbenzene-1,2-diol]",Km,PPO-1; read-out: substrate / 4MC,1.06 ± 0.18 mM
"PPO-7 (Taraxacum officinale) (protein, mature protein without transit peptide, N-terminal Strep2 tag with enterokinase site spacer; E. coli Rosetta2 (DE3); tetramer) APITTPDISTCIPSESGFNTEDSVRSNQCCPPATSSTIPKEFVFPKDTTTRIRPAAHRATPEYVAKYKAAIQAMRDLPDDHPHSFVSQAKIHCAYCNGGYTQVASGFPDKMLQVHNSWLFFPFHRWYLYFYERILGKLIDDPTFALPYWNWDHPAGMTLPAFFETDGKRNPVFDAYRNVTHVTPAAIVDLDYNGSDSGAPCLQQINTNLTAMYKQMVSNAADPLSFFGGVYKAGDDPFGNGDPSVGSVEAGCHTAVHRWVGNPRMMNTEDMGNFYSAGYDPAFYVHHANVDRMWKVWKDLGIPGHSEPTDPDWLNASFVFYDENEQLVRVYNKDCVNLENLKYDYELSPLPWLKNRPVPHTPKPVDNAAKPAIKLPEVKFPVKLDKTVKVYVKRPVKKRGKAEKDKVSEQLVLKGIKFNSTKFVKVDVFVNDQDDAPAILPSESEFVGSFAQLPHGRSGRGRGRGHGHSELMTSAARFGLTELLEDIGAEDDEYILVTLVPKAGSEDVTVEEITVELVPVNP",Km,[1],4.49 ± 2.26 mM
same,kcat,[1],22.6 ± 2.5 s⁻¹
"PPO-2 (Taraxacum officinale) (protein, mature protein without transit peptide, N-terminal Strep2 tag with enterokinase site spacer; E. coli Rosetta2 (DE3)) DPIMAPDLTKCGPADLPQGAVATNCCPPFTKNIIDFKLPPPSTNLRVRPAAHLANKDYIAKFNKAIELMKALPDDDPRSFKQQAAVHCAYCDGAYDQVGFPDLDLQVHNSWLFLPFHRHYLYFFEKICGKLINDPNFAIPFWNWDTPDGMTIPAIYANKNSQLYDALRDGKHQPPSLVDLDFNGEDENLSKSKQTSTNLTIMYRQMVSSSKTASLFMGSPYRAGDEANPGGGSLESIPHGPVHIWTGDRNQPNGEDMGNFYSAARDPIFYAHHANIDRMWSVWKTLGGRRNDFTDKDWLDSAFLFYDENAELVRVKVRDALDSKKLGYVYQDVGIPWLETKPEPRLKRALSKIKKKLAVARADEHIPFAKDVFPATLDKVIKVLVPRPKKSRSKKQKDAEEEILVIEGIEVKRDEFVKFDVFVNDEDDGMRATADKTEFAGSFVNVPHKHKHGKSVKTRLRLGISELLDDLGADDDDNVLVTLVPKNKGDEVSIKGMKIEYED",Km,[2],0.94 ± 0.31 mM
same,kcat,[2],59.5 ± 13.7 s⁻¹
"PPO-6 (Taraxacum officinale) (protein, mature protein without transit peptide, N-terminal Strep2 tag with enterokinase site spacer; E. coli Rosetta2 (DE3); disulfide-linked tetramer) DPITTPDISTCVASTKGFQPKNAVRTNACCPPTLSKTVKEFVFPNDRATRIRPAAHRASPEYIAKYKAAIQKMRDLEDDDPHSFVSQAKIHCAYCNGGFTQDKHPDKELQIHNSWLFFPFHRWYLYFYERILGKLIDDPTFAIPYWNWDNPAGMSLPDFFEEGGKANPAFDAYRNSSHLAPAIADLDYDGTEKNYTCIKQLSVNLGAMNKQMIRNAGDWKSFFGGEYRAGSDPIGNKDPSVGSVEAGCHTAIHRWVGNSRLPNGEDMGNFYSAGYDPVFYVHHANVDRMWKVWKDLGIRGHIEPPDNDWRNASYVFYDENKELVRVYNKDCVRLEKLKYDYQFAPIPWKNSRPVARTKKSNIALKSVGTVKQAQDSKFPLKLDKTTKVLVKRPATNRSKEDKENANEVLLIKGVVFNGEKFVKFDVFVNDKDDVTASTAEESEFAGSFAQLPHNHGDKMLMTSSARFGLTELLEDIDAEDDESILVTLVPKVGCEEVTIGEIKVELVPIEE",Km,[3],5.62 ± 1.14 mM
same,kcat,[3],61.7 ± 10.6 s⁻¹

# Reference: paper PMC4053514, “Structural Diversity in the Dandelion (Taraxacum officinale) Polyphenol Oxidase Family Results in Different Responses to Model Substrates” (PLoS ONE, 2014)
